Laboratory results as given in patent US7902348B2, “Janus family kinases and identification of immune modulators” (The United States of America as represented by the …, priority 1995, dated 2011).

T1: γc-JAK-3 interaction (Homo sapiens, UniProt P52333)
T1 construct: endogenous in cells; host or cells: YT cells (alternatively COS-7 cells expressing γc and JAK-3)
T1 sequence (P52333 1-1124): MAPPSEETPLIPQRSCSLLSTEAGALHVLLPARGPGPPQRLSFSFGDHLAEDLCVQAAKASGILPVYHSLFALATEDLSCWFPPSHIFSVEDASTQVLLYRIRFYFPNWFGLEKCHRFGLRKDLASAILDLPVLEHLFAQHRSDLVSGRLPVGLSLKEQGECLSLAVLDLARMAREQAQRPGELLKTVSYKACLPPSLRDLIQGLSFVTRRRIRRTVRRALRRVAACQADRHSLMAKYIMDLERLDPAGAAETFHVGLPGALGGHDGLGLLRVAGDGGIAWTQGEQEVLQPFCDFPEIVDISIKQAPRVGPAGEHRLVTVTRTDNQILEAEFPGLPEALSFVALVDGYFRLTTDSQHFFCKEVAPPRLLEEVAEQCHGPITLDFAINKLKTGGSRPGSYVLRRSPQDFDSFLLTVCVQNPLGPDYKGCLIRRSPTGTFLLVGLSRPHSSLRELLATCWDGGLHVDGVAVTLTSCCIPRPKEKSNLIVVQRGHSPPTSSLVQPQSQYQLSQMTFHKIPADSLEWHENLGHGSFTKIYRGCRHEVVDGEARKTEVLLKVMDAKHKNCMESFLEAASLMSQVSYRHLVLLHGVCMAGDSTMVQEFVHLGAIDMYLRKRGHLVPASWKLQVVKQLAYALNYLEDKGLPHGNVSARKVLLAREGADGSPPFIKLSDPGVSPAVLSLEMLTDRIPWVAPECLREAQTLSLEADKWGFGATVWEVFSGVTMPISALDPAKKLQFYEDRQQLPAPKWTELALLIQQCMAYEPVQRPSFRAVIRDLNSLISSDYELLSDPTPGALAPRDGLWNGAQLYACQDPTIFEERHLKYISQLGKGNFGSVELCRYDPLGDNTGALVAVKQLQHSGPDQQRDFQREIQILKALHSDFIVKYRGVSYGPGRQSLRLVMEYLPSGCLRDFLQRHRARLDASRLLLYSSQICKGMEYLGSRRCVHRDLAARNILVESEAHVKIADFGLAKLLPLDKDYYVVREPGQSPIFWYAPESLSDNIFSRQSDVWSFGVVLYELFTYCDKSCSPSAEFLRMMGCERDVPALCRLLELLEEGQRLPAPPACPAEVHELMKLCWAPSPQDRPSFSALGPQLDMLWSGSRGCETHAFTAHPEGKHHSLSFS


Assays:
γc-JAK-3 interaction = target: T1, γc-JAK-3 interaction; assay: Assay for compounds that inhibit IL-2 receptor complex formation: γc-JAK-3 coprecipitation (Example 15); type: binding; conditions: peptide 140 μM added to cell lysates, anti-γc immunoprecipitation, JAK-3 immunoblot
Description: The peptide to be tested as an inhibitor corresponded to the first 19 amino acids of the γc cytoplasmic tail (sequence […]) (SEQ ID NO:7). […] The negative control peptide had the sequence […] (SEQ ID NO:10), and was synthesized so that the Tyr residue at position 5 of the peptide was phosphotyrosine. The test peptide or the negative control peptide were separately added to the cell lysates to final concentrations of 140 μM. The positive control immunoprecipitation was carried out in the absence of added peptide. Lysates were immunoprecipitated for 16 hours at 4° C. using antibodies to γc and protein A sepharose and washed six times before electrophoresis on SDS gels. The gels were immunoblotted with antisera to JAK-3 using ECL as described previously.

JAK-1 = assay: Cytokine-induced phosphorylation and activation of JAK-1 in PHA-activated peripheral blood lymphocytes (Example 11); type: cell-based, human; conditions: for tyrosine phosphorylation of JAK-1: PBL, 15 minutes, Western blotting; for activation of JAK-1: in vitro kinase assays
Description: (§1) The PBL were activated for 72 hours with PHA, then washed twice at pH 6.5, incubated for 3 hours in medium containing 0.5% human serum and resuspended in medium containing 10% fetal calf serum for one hour. Cells were then lysed and immunoprecipitated with polyclonal antibodies to JAK-1 (UBI) or JAK-3. The anti-JAK-3 antibody used in these procedures has been described by Johnston et al., in Nature 370:151 (1994). Phosphotyrosine-containing proteins were detected by immunoblotting with 4G10 (UBI). […] In one procedure, the lysate was precleared with polyclonal antibody to JAK-3.

JAK-3 [1] = assay: Cytokine-induced phosphorylation and activation of JAK-3 in PHA-activated peripheral blood lymphocytes (Example 11); type: cell-based, human; conditions: for tyrosine phosphorylation of JAK-3: PBL, 15 minutes, Western blotting; for activation of JAK-3: in vitro kinase assays
Description: as §1

JAK-3 [2] = assay: Cytokine-induced tyrosine phosphorylation of JAK-3 in YT cells (Example 10); type: cell-based, human; conditions: 15 minutes stimulation, anti-JAK-3 IP, antiphosphotyrosine blot
Description: (§2) YT cells were serum-starved for 3 hours and acid washed twice before stimulation and immunoprecipitation. NK 3.3 cells were grown for 2 days in 10% lymphocult (Biotest) and 15% fetal bovine serum before being washed and incubated in 2% serum. Commercial polyclonal anti-JAK-1 and JAK-2 antisera were obtained from UBI and Tyk2 polyclonal antiserum from Santa Cruz Biotechnology.

JAK-3 [3] = assay: Cytokine-induced tyrosine phosphorylation of JAK-3 in NK 3.3 cells (Example 10); type: cell-based, human; conditions: 5 or 15 minutes stimulation
Description: as §2
Cellular lysates were immunoprecipitated with anti-JAK-3 and blotted with antiphosphotyrosine.

Molecule | inhibition of γc-JAK-3 coprecipitation (γc-JAK-3 interaction) | tyrosine phosphorylation of JAK-1 (JAK-1) | activation of JAK-1 (JAK-1) | tyrosine phosphorylation of JAK-3 (JAK-3 [1]) | activation of JAK-3 (JAK-3 [1]) | other results
ERTMPRIPTLKNLEDLVTE (n-terminal fragment) [competitor peptide] | partially inhibited |  |  |  |  | inhibition of γc-JAK-3 coprecipitation (γc-JAK-3 interaction; listed as 19 amino acid long peptide spanning Leu 271): only partially inhibited; inhibition of γc-JAK-3 coprecipitation (γc-JAK-3 interaction; listed as 19 amino acid polypeptide having the sequence of SEQ ID NO:6): inhibited
APPCYTLKPET (n-terminal fragment) [negative control peptide, reference compound] | failed to inhibit |  |  |  |  | 
IL-9: cytokine, known γc user |  | induced tyrosine phosphorylation | activated | induced tyrosine phosphorylation | activated | 
GM-CSF: granulocyte macrophage colony stimulating factor |  |  |  |  |  | JAK-3 tyrosine phosphorylation (JAK-3 [2]): not phosphorylated
IL-7: cytokine, known γc user (protein, UniProt P13232 26-177, looked up) Interleukin-7: DCDIEGKDGKQYESVLMVSIDQLLDSMKEIGSNCLNNEFNFFKRHICDANKEGMFLFRAARKLRQFLKMNSTGDFDLHLLKVSEGTTILLNCTGQVKGRKPAALGEAQPTKSLEENKSLKEQKKLNDLCFLKRLLQEIKTCWNKILMGTKEH |  | induced tyrosine phosphorylation | activated | induced tyrosine phosphorylation | activated | 
IL-4: cytokine that utilizes the common γ chain of the IL-2 receptor (protein, UniProt P05112 25-153, looked up) Interleukin-4: HKCDITLQEIIKTLNSLTEQKTLCTELTVTDIFAASKNTTEKETFCRAATVLRQFYSHHEKDTRCLGATAQQFHRHKQLIRFLKRLDRNLWGLAGLNSCPVKEANQSTLENFLERLKTIMREKYSKCSS |  | induced tyrosine phosphorylation | activated | induced tyrosine phosphorylation | activated | JAK-3 tyrosine phosphorylation (JAK-3 [3]): tyrosine phosphorylated
